The text below walks through data of PMC7256013, “Preclinical evaluation of cationic DOTA-triarginine-lipid conjugates for theranostic liquid brachytherapy” (Nanotheranostics, 2020).

Residues, ends and D or L forms follow the SMILES beside them. *: point of attachment. DOTA = O=C(O)CN1CCN(CC(=O)O)CCN(CC(=O)*)CCN(CC(=O)O)CC1; Stearoyl = CCCCCCCCCCCCCCCCCC(=O)*

In general, tissue uptake refers to the percentage of the injected dose found per gram of tissue.

For data set [1] the following is noted: mouse, in vivo.
Method: (§1) Mice were injected intratumorally with ^64Cu-compounds in concentrations of 40 MBq/mL. During the scan procedures, mice were anaesthetized using 3-4 % sevoflurane (Abbott Scandinavia AB, Sweden) mixed with 35% O2 and 65% medical grade air and placed on heating pads. Two mice were positioned side-by-side, separated by a 6 mm polystyrene block for PET/CT imaging using Inveon® small animal PET/CT system with CT based PET image attenuation (Siemens Medical Systems, Malvern, PA, USA). The protocol included a 12-minute PET scan, followed by a CT scan. Mice were fixed on a bed inside the scanner with the syringe placed and the needle fixed centrally in the tumor and ready for injection. Upon initiation of the first scan, intratumoral injections were done manually over 30 seconds, to investigate the initial dynamics of the tracer diffusion. Following this, two further scans were included; at six hours (5 minutes scan time) and 24 hours (12 minutes scan time) after injection. Reconstruction of the PET scans were performed using maximum a posteriori (MAP) reconstruction algorithm (voxel size: 0.815 x 0.815 x 0.796 mm; resolution (FWHM) 1.2 mm). The injection scan was reconstructed in 4 x 30 second and 10 x 60 second time frames to observe the dynamics of tracer diffusion. The two last time points were reconstructed in a single time frame.
(§2) Image analysis was performed using commercially available Inveon software (Siemens Medical Systems, Malvern, PA, USA). Regions of interest (ROIs) were manually drawn based on the co-registered PET/CT images. The following ROIs were constructed; tumors (complete volume delineated), liver, spleen, kidney, bladder, and blood. Blood activity was estimated from a constructed ROI covering the left ventricular lumen of the heart. ROIs in the left ventricle and abdominal aorta were subsequently segmented to only include the voxels displaying above 80% of maximum activity with the original ROI. From the obtained uptake values all data was calculated into %ID/g for each organ and as %ID in tumors by adjusting for CT based tumor volume. Furthermore, voxel values from tumor ROIs were used to generate histograms for substance diffusion over time in the tumor region.
(§3) Note that the first point in each plot represents the percentage of voxels with radioactivity concentrations lower than 1.6 %ID/g. These voxels are considered empty, meaning that the corresponding tumor region is non-radioactive.
A short description of data set [2]: in vivo. The following applies: female, Balb/C, mouse, total radioactivity.
Method: CT26 wildtype cells (murine colon carcinoma, ATCC, Virginia, US) were cultured RPMI (Roswell Park Memorial Institute) medium supplemented with 10 % heat-inactivated Fetal Calf Serum (FCS) and 1 % Penicillin-Streptomycin (Invitrogen, Carlsbad, CA., US) retained in 5 % CO2 incubator at 37 °C. Immunocompetent female Balb/C mice (Charles River, Wilmington, MA., USA) were inoculated with tumor cells after one week of adaptation. All 20 mice included were inoculated subcutaneously with 3 x 10^5 CT26 wildtype cells in 100 µL medium on the right flank and hereafter monitored for weight and tumor size continuously for study purposes and to monitor the health of the mice. Tumor sizes were calculated from the formula of 0.52 x lenght^2 x width, as measured by external caliper. Animals were included in the study when tumors were approximately 400 mm^3.
as §1, §2
Data set [3] is described as follows: in vivo. As to conditions: female, Balb/C, mouse, total radioactivity. The source holds these as a separate data set.
Method: as §1, §2, §3

With `CCCCCCCCCCCCCCCCCC(=O)N[C@@H](CCCNC(=N)N)C(=O)N[C@@H](CCCNC(=N)N)C(=O)N[C@@H](CCCNC(=N)N)C(=O)N[C@@H](CCCCNC(=O)CN1CCN(CC(=O)O)CCN(CC(=O)O)CCN(CC(=O)O)CC1)C(N)=O` [64Cu-D3R-C18, metal not drawn] (Stearoyl-RRRK(DOTA)-NH2), in data set [1], the “range of voxel radioactivities in tumor” value is 0-500 %ID/g. In addition, in “in vivo [2]”, the tissue uptake at 15 s was found to be 80 ± 66 %ID/g, the tissue uptake at 45 s was 171 ± 96 %ID/g, the tissue uptake at 75 s was found to be 230 ± 58 %ID/g and the tissue uptake at 105 s turned out to be 241 ± 63 %ID/g. Further, in the data set “in vivo [2]”, the tissue uptake at 2.5 min amounted to 241 ± 66 %ID/g, the tissue uptake at 3.5 min amounted to 240 ± 68 %ID/g, the tissue uptake at 0.075 h was 241 ± 69 %ID/g and the tissue uptake at 5.5 min was 240 ± 70 %ID/g. In “in vivo [2]”, the tissue uptake at 6.5 min was found to be 240 ± 70 %ID/g, the tissue uptake at 0.125 h came out at 240 ± 70 %ID/g, the tissue uptake at 8.5 min came out at 239 ± 69 %ID/g and the tissue uptake at 9.5 min amounted to 238 ± 70 %ID/g. Besides, in the data set “in vivo [2]”, the tissue uptake at 0.175 h was 238 ± 70 %ID/g, the tissue uptake at 11.5 min turned out to be 236 ± 70 %ID/g, the tissue uptake at 6 h was 49 ± 17 %ID/g and the tissue uptake at 24 h stood at 23 ± 7 %ID/g. Moreover, the tissue uptake dose at 0.2 h in the data set “in vivo [2]” stood at 85 ± 11 %ID. In “in vivo [3]”, the tissue uptake at 5 min is below 10 %ID/g.
